Test results as given in US20160145309A1.

Biological target: human APJ receptor (human) (UniProt P35414)
Test: cell-based or functional assay

human APJ receptor (human), sequence (P35414 whole entry): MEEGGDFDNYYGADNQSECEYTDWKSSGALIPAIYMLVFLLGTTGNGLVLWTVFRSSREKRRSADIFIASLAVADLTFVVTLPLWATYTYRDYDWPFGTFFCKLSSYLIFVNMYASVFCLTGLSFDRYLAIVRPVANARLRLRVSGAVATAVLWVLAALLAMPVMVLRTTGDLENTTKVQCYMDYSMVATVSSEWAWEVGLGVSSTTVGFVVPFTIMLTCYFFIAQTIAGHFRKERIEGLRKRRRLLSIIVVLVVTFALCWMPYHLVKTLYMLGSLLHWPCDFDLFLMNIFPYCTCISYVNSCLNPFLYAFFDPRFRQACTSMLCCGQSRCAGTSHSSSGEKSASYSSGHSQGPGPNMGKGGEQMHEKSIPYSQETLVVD

| Substance | hAPJ Ca2+ Flux EC50 [nM] |
| --- | --- |
| Example 7: pE-R-P-R-L-S-(D-hC)*-K-G-P-Nle-(D-hC)*-F-OH (peptide) | 781 |
| Example 17: pE-R-P-R-L-a-H-K-C*-P-Nle-C*-f-OH (peptide) | 1.9 |
| Example 2: pE-R-P-R-hC*-S-H-K-G-P-(D-Nle)-C*-y-OH (peptide) | 154 |
| Example 21: pE-R-P-R-L-s-H-K-C*-P-Nle-C*-f-OH (peptide) | 9.7 |
| Example 6: pE-R-P-R-L-S-hC*-K-G-P-Nle-(D-hC)*-F-OH (peptide) | 92.8 |
| Example 14: pE-R-P-R-L-S-H-K-C*-P-Nle-C*-F-OH (peptide) | 0.81 |
| Example 4: pE-R-P-R-L-S-C*-K-G-P-Nle-(D-hC)*-F-OH (peptide) | 406 |
| Example 13: pE-R-P-R-L-S-hC*-K-G-P-Nle-hC*-F-OH (peptide) | 760 |
| Example 11: pE-R-P-R-L-S-C*-K-G-P-Nle-c*-F-OH (peptide) | 113 |
| Example 15: pE-R-P-R-L-S-Aib-K-C*-P-Nle-C*-NH(Phenethyl) (peptide) | 4 |
| Example 3: pE-R-P-R-L-S-C*-K-G-P-Nle-C*-F-OH (peptide) | 128 |
| Example 20: pE-R-P-R-L-S-Aib-K-C*-P-Nle-C*-f-OH (peptide) | 6.1 |
| Example 5: pE-R-P-R-L-S-c*-K-G-P-Nle-(D-hC)*-F-OH (peptide) | 981 |

Results, then the substance that gave them:

| hAPJ Ca2+ Flux EC50 [nM] | Substance |
| --- | --- |
| 2.3 | Example 18: Isonipecotoyl-R-P-R-L-a-H-K-C*-P-Nle-C*-f-OH (peptide) |
| 1030 | Example 9: pE-R-P-R-L-S-(D-hC)*-K-G-P-Nle-hC*-F-OH (peptide) |
| 613 | Example 8: pE-R-P-R-L-S-(D-hC)*-K-G-P-Nle-C*-F-OH (peptide) |
| 72.3 | Example 19: pE-R-P-R-L-a-Aib-K-C*-P-Nle-C*-f-OH (peptide) |
| 81.7 | Example 12: pE-R-P-R-L-S-C*-K-G-P-Nle-hC*-F-OH (peptide) |
| 976 | Example 10: pE-R-P-R-L-S-(D-hC)*-K-G-P-Nle-C*-OH (peptide) |
| 0.74 | Example 1: pE-R-P-R-C*-S-H-K-G-P-Nle-C*-F-OH (peptide) |
| 33.2 | Example 16: pE-R-P-R-L-S-a-K-C*-P-Nle-C*-f-OH (peptide) |
